Results reported in patent US20170327598A1 (published 2017).
One block for each binder: values may come before it.

What was measured:
[1] = target: TNF-alpha (U937 cytotoxicity assay of Example 16) (UniProt P01375 77-233, limits assumed); assay: cell-based or functional assay
[2] = target: Human recombinant TNF-α (Sigma-Aldrich) (human, UniProt P01375 77-233); assay: cell-based or functional assay
[3] = target: active human TNF-α full length protein (human, UniProt P01375 77-233); assay: ELISA, wells coated with 0.5 µg/mL TNF-α, sdAb at 1 µg/mL
Sequence of active human TNF-α full length protein (P01375 77-233 limits assumed): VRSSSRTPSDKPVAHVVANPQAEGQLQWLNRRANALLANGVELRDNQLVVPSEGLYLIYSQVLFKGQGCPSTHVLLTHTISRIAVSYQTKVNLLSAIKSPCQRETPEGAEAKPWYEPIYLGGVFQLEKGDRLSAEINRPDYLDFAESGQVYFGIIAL

Sequence of Human recombinant TNF-α (Sigma-Aldrich) (P01375 77-233 limits assumed): as above
Sequence of TNF-alpha (U937 cytotoxicity assay of Example 16) (P01375 77-233 limits assumed): as above

B1: anti-TNF-alpha VHH69 (SEQ ID NO:46) sdAb (VHH)
VHH: EVQLVESGGGSVLAGGSLRLSCVASGFTSRYNYMAWFRQAPGKEREGVATIGTASGSADYYGSVKDRFTISQDNAKNTVYLQMNSLKPEDTAMYYCAARTYGTISLTPSDYRYWGQGTLVTVSS
IC50 (inhibition of TNF-alpha cytotoxicity against U937 cells, ATP luminescence) [1]: > 208 µg/mL

B2: anti-TNF-alpha VHH62 (SEQ ID NO:47) sdAb (VHH)
VHH: QVQLVESGGGPVQAGETLRLSCTASGFTFAEADMGWYRQAPGHECELVSTITTEGITSEASSYYADSVRGRFTISRDNAKNMVYLQMNSLKPEDTAVYYCAPDPYAYSTYSDYCSWAQGTQGTLVTVSS
IC50 (inhibition of TNF-alpha cytotoxicity against U937 cells, ATP luminescence) [1]: ~714 µg/mL

B3: anti-TNF-alpha VHH66 (SEQ ID NO:45) sdAb (VHH)
VHH: HVQLVESGGGSVEAGGSLRLSCAASGFRYAAYCMGWFRQADGKEREGVATIDIDGLTTHADSVKGRFTISRDNAKNTLSLQMNDLKPEDTAMYYCAADRDRCGSIWTYAYKYRGQGTLVTVSS
EC50 (inhibition of TNF-α cytotoxicity on L929 cells, Assay 1, Batch A) [2]: 2.9 µg/mL
EC50 (inhibition of TNF-α cytotoxicity on L929 cells, Assay 1, Batch B) [2]: 1.2 µg/mL
EC50 (inhibition of TNF-α cytotoxicity on L929 cells, Assay 1, Batch C) [2]: 2.3 µg/mL
EC50 (inhibition of TNF-α cytotoxicity on L929 cells, Assay 2, Batch B) [2]: 4.5 µg/mL
EC50 (inhibition of TNF-α cytotoxicity on L929 cells, Assay 2, Batch C) [2]: 6.2 µg/mL

OD450 [3]: 3.86 OD450
B4: anti-TNF-alpha VHH66 (SEQ ID NO:45) sdAb (VHH)
VHH: B3 VHH
